Measured values: patent US20110053268A1, “METHOD FOR DIAGNOSIS OF ABNORMAL IRON METABOLISM USING ACTIVE HEPCIDIN AS INDICATOR” (priority 2006, published 2011)
“Also recorded” adds a separate entry of the source. One block for each compound: values may come before it.

Columns and labels:
[1] = Intravenous iron administration (iron loading) in a hemodialysis patient, serial serum profiling
Description: Serum samples were obtained from 40 hemodialysis patients before and after hemodialysis. All patients were receiving hemodialysis treatment three times a week. In addition, serum samples were collected from patients with acute pyelonephritis (two patients), pneumonia (two patients), and sepsis (two patients), as well as from 16 healthy volunteers with normal renal function. Serial samples of serum and urine obtained from two patients with acute pyelonephritis and two hemodialysis patients who had received intravenous iron administration for iron deficiency were also analyzed. Red blood cell (RBC) count, hemoglobin (Hb), hematocrit (Ht), plasma iron, and ferritin were evaluated for the clinical assessment of iron status and anemia. Serum samples were separated by centrifugation (3,000 rpm) and stored at −80° C. until assayed. Informed consent for the analysis of the protein profiling of serum and/or urine was obtained from all the participants.
For preliminary trials, multiple types of protein chips were used with various surface characteristics, which included weak cation exchange, strong anion exchange, and immobilized metal affinity capture for protein molecules that bind divalent cationic copper. The present inventor eventually chose the mobilized metal affinity capture ProteinChip® array (IMAC 30-Cu) for the entire study because of its reproducibility in detecting protein species from serum and urine. SELDI analysis was performed according to the manufacturer's manual, with some modifications. In brief, serum and urine samples were diluted 20-fold and 10-fold, respectively, with binding buffer (phosphate buffered saline, pH 7.4). Using a bioprocessor, 40 μl of diluted samples were applied onto different arrays of an IMAC 30-Cu chip pretreated with 100 mM copper sulfate binding buffer and the chip was incubated at room temperature for 30 min with constant horizontal shaking. For confirmation of the reproducibility, each sample was applied to two separate spots on an IMAC 30-Cu chip. Unbound proteins were removed by washing three times with binding buffer for 5 min. […] Next, the arrays were analyzed using the Ciphergen ProteinChip® Reader PBS II. The proteins with CHCA were ionized and their molecular masses were determined by TOF analysis. The mass-to-charge ratio (m/z) of each of the proteins/peptides captured on the array surface was determined according to externally calibrated standards: Arg8-vasopressin (1,084.25 Da), somatostatin (1,637.9 Da), dynorphin (2,147.5 Da), bovine insulin beta-chain (3,495.94 Da), human insulin (5,807.65 Da), bovine ubiquitin (8,564.8 Da), and bovine cytochrome C (12,230.9 Da). […]

IL-6 receptor = target: T1, IL-6 receptor (Homo sapiens, UniProt P08887); experiment: Tocilizumab treatment of two Castleman's disease cases, serum and urine hepcidin monitored by SELDI-TOF-MS; format: in vivo
T1 construct: before and after tocilizumab treatment in two Castleman's disease cases; from tissue; host or cells: patients with Castleman's disease (in vivo treatment)
T1 sequence (P08887 20-468): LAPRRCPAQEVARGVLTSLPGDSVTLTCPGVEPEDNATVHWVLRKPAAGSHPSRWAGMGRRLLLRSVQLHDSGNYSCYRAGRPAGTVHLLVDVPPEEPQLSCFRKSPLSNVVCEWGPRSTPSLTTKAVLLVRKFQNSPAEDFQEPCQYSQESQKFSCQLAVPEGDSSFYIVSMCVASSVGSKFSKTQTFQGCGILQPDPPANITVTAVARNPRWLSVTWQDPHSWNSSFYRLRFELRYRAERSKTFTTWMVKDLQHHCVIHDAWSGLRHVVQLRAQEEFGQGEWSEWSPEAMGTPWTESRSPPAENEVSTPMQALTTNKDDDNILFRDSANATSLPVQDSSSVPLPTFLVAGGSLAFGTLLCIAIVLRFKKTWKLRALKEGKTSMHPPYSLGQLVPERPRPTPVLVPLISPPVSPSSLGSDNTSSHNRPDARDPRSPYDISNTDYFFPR
Method: The present inventor monitored serum and urine hepcidin before and after tocilizumab treatment in two Castleman's disease cases who began treatment with tocilizumab (registered trademark: Actemra), from 7 days before treatment to 14 days after the start of the treatment. The measurement of hepcidin was performed in the manner described in Example 1.

[2] = Clearance of serum peptides by hemodialysis (SELDI-TOF-MS before and after hemodialysis); format: in vivo, human; conditions: hemodialysis patients, serum before vs after hemodialysis
Method: Serum samples were obtained from 40 hemodialysis patients before and after hemodialysis. All patients were receiving hemodialysis treatment three times a week. […] Serum samples were separated by centrifugation (3,000 rpm) and stored at −80° C. until assayed.
SELDI analysis was performed according to the manufacturer's manual, with some modifications. In brief, serum and urine samples were diluted 20-fold and 10-fold, respectively, with binding buffer (phosphate buffered saline, pH 7.4). Using a bioprocessor, 40 μl of diluted samples were applied onto different arrays of an IMAC 30-Cu chip pretreated with 100 mM copper sulfate binding buffer and the chip was incubated at room temperature for 30 min with constant horizontal shaking. For confirmation of the reproducibility, each sample was applied to two separate spots on an IMAC 30-Cu chip. Unbound proteins were removed by washing three times with binding buffer for 5 min. The arrays were rinsed twice with 400 μl of water, were air-dried, and 0.5 μl of alpha-cyano-4-hydroxy-cinnamic acid (CHCA; Ciphergen) in 50% acetonitrile and 0.5% trifluoroacetic acid was added twice onto the surface of the chip. Next, the arrays were analyzed using the Ciphergen ProteinChip® Reader PBS II. The proteins with CHCA were ionized and their molecular masses were determined by TOF analysis. The mass-to-charge ratio (m/z) of each of the proteins/peptides captured on the array surface was determined according to externally calibrated standards: Arg8-vasopressin (1,084.25 Da), somatostatin (1,637.9 Da), dynorphin (2,147.5 Da), bovine insulin beta-chain (3,495.94 Da), human insulin (5,807.65 Da), bovine ubiquitin (8,564.8 Da), and bovine cytochrome C (12,230.9 Da). The mass spectra of the samples were generated using an average of 80 laser shots at a laser intensity of 180 and a detector sensitivity of 10. Synthetic hepcidin-25 (Peptide Institute Inc, Osaka) was used as a marker of 2,789 Da. […]

[3] = case 1, day 3 after tocilizumab

Compound: [Fe] [iron]
expression of the serum 2,192 m/z peak (hepcidin-20) ([1]; i.v. iron for eight weeks): increased
intensity of the serum peak at 2,789 m/z (hepcidin-25) ([1]; i.v. iron for eight weeks): increased gradually
serum ferritin level after iron administration ([1]; increased from 11.3 ng/ml, 40 mg iron i.v. twice a week for eight weeks, person on hemodialysis): 273 ng/mL

urine level of hepcidin-20 (IL-6 receptor; [3]): dramatically reduced
urine level of hepcidin-25 (IL-6 receptor; [3]): dramatically reduced
high CRP levels, anemia, and hypoalbuminemia (IL-6 receptor; cases 1 and 2, up to 14 days after start of treatment): alleviated
serum ferritin level (IL-6 receptor; cases 1 and 2 after tocilizumab): reduced slowly
Compound: tocilizumab
serum hepcidin-25 level (IL-6 receptor; both Castleman's disease cases, within a single day after the first dose of tocilizumab): downregulation; also recorded: drastically reduced

Compound: hepcidin-20 (ICIFCCGCCHRSKCGMCCKT; listed as Homo sapiens) [2,192 m/z]
removal rate by hemodialysis [2]: 45±19%

Compound: hepcidin-25 [2,789 m/z]
removal rate by hemodialysis [2]: 46±23%
removal rate by hemodialysis ([2]; listed as hepcidin-25): 46%

Compound: hepcidin
half-life of hepcidin in serum (IL-6 receptor; inferred from the drop in hepcidin after tocilizumab): short
